PMC6450391 (Nature immunology, 2019)

Molecular target: T1, 1CARD-SUMO (caspase-1 CARD with carboxy-terminal SUMO, after TEV cleavage of MBP-1CARD-SUMO) (human, UniProt P29466 1-91)
T1 sequence (looked up): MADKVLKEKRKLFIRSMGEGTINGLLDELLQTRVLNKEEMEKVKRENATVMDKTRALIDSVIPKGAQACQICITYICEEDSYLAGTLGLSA
Test: cross-linking

fold decrease in 1CARD oligomer with SERPINB1 against without SERPINB1: 4.18 fold | fold increase in 1CARD monomer with SERPINB1 against without SERPINB1: 7.48 fold
B1: SERPINB1, purified, amino-terminal SUMO cleaved (natural protein, human, UniProt P30740 1-379, looked up)
chain: MEQLSSANTRFALDLFLALSENNPAGNIFISPFSISSAMAMVFLGTRGNTAAQLSKTFHFNTVEEVHSRFQSLNADINKRGASYILKLANRLYGEKTYNFLPEFLVSTQKTYGADLASVDFQHASEDARKTINQWVKGQTEGKIPELLASGMVDNMTKLVLVNAIYFKGNWKDKFMKEATTNAPFRLNKKDRKTVKMMYQKKKFAYGYIEDLKCRVLELPYQGEELSMVILLPDDIEDESTGLKKIEEQLTLEKLHEWTKPENLDFIEVNVSLPRFKLEESYTLNSDLARLGVQDLFNSSKADLSGMSGARDIFISKIVHKSFVEVNEEGTEAAAATAGIATFCMLMPEENFTADHPFLFFIRHNSSGSILFLGRFSSP
